Reference: publication PMC6555802

Target: CHML (fluorescence titration) (human) (UniProt P26374)
Assay: other fluorescence titration; fluorescence titration assay (Supplementary Fig. 8); conditions not stated in the text shown

Sequence of CHML (fluorescence titration) (human) (P26374 whole entry): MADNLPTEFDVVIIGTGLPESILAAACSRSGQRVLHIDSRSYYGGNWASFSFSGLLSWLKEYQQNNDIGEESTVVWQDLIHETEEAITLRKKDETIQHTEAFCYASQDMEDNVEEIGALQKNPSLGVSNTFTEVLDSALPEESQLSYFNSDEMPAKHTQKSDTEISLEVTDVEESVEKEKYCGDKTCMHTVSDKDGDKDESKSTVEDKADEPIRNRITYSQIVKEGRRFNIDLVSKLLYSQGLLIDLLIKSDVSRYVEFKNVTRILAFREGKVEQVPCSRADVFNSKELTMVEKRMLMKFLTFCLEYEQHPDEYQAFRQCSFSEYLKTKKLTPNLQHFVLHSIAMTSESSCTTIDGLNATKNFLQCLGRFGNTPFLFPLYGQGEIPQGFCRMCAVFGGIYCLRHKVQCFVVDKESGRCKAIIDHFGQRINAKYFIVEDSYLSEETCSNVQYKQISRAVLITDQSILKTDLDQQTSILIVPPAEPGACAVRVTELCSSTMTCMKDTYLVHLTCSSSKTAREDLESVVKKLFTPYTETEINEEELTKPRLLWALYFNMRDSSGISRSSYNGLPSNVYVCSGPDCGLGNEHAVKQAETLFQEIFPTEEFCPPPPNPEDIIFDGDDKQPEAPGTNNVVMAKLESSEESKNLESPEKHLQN

- Kd: 7.84 nM
Substance: Rab7A (fluorescence titration) (from UniProt P51149 1-207) (natural protein)
